Where two headings read alike, the source gives them in different places.
Key:
[1] = molecular target: Native M. bovis BCG Moreau dodecin (M. bovis BCG Moreau (endogenous)); assay: SDS-PAGE and western blotting of oligomer bands; logarithmic phase mycobacterial lysates incubated 30 min at 40 or 80 °C, supernatants on SDS-PAGE, blot with anti-dodecin serum
[2] = molecular target: Native M. bovis BCG Moreau dodecin (M. bovis BCG Moreau (endogenous)); assay: SDS-PAGE and western blotting of oligomer bands; 20 ug total proteins of mycobacterial whole cell lysates (lag, logarithmic and stationary phase; 50 mM HEPES/KOH pH 7.5, 10 mM MgCl2, 60 mM NH4Cl, 10% glycerol), 15% SDS-PAGE, blot with anti-dodecin serum
[3] = molecular target: Recombinant M. tuberculosis H37Rv dodecin with C-terminal 6-His tag (Mycobacterium tuberculosis H37Rv) (UniProt I6XY36); assay: SDS-PAGE and western blotting of oligomer bands
[4] = molecular target: Recombinant M. tuberculosis H37Rv dodecin with C-terminal 6-His tag (Mycobacterium tuberculosis H37Rv) (UniProt I6XY36); assay: SDS-PAGE and western blotting of oligomer bands; remark: listed apart in the source
[5] = molecular target: Recombinant M. bovis BCG Moreau dodecin with C-terminal 6-His tag (M. bovis BCG Moreau); assay: SDS-PAGE and western blotting of oligomer bands
[6] = molecular target: Recombinant M. bovis BCG Moreau dodecin with C-terminal 6-His tag (M. bovis BCG Moreau); assay: SDS-PAGE and western blotting of oligomer bands; remark: listed apart in the source
[7] = molecular target: the molecule itself; assay: SDS-PAGE and western blotting of oligomer bands; 20 ug total proteins of mycobacterial whole cell lysates (lag, logarithmic and stationary phase; 50 mM HEPES/KOH pH 7.5, 10 mM MgCl2, 60 mM NH4Cl, 10% glycerol), 15% SDS-PAGE, blot with anti-dodecin serum

## Native M. bovis BCG Moreau dodecin (natural protein)
[1]
  stoichiometry N: 6
[2]
  stoichiometry N: 6

## Recombinant M. tuberculosis H37Rv dodecin with C-terminal 6-His tag (from UniProt I6XY36 1-70) (natural protein)
[3]
  stoichiometry N: 12
[4]
  stoichiometry N: 4

## Recombinant M. bovis BCG Moreau dodecin with C-terminal 6-His tag (natural protein)
[5]
  stoichiometry N: 4
[6]
  stoichiometry N: 12

B1: Native M. tuberculosis H37Rv dodecin (natural protein)
chain: MSNHTYRVIEIVGTSPDGVDAAIQGGLARAAQTMRALDWFEVQSIRGHLVDGAVAHFQVTMKVGFRLEDS
notes: also called M.tb native dodecin; Tb
[7]
  stoichiometry N: 6
